Experimental findings from the Human Domainome abundance scans (Beltran et al. 2025) are described below.

± gives the uncertainty stated by the source.

The labels stand for the following.
B1: Protein C-ets-1, residues 55 to 135; numbered along this chain, P14921 (parent)
chain: GFTKEQQRLGIPKDPRQWTETHVRDWVMWAVNEFSLKGVDFQKFCMNGAALCALGKDCFLELAPDFVGDILWEHLEILQKE

In the series the parent is B1. As to the kind of experiment: abundance fitness (aPCA) (normalised: wild type 0, dead -1); higher = more abundant; growth selection in yeast, the domain comes from the species named. As to conditions: Homo sapiens.
As for I11A, the abundance fitness is -0.326 ± 0.033.
To V39K belongs -0.533 ± 0.14; to R16G, -0.108 ± 0.034; to R16Y, -0.049 ± 0.11.
Take E73K: the abundance fitness worked out at 0.004 ± 0.075.
To E76F belongs -0.273 ± 0.078; to E76T, -0.14 ± 0.065.
To E76K belongs -0.053 ± 0.09; to F59E, -0.944 ± 0.1.
To F59L belongs -0.252 ± 0.032.
With F59N, the abundance fitness was -0.494 ± 0.084.
Next, W72F: -0.098 ± 0.062; W72P: -1.15 ± 0.23; E20V: -0.019 ± 0.023.
Next, E20T: -0.036 ± 0.04; V31N: -0.401 ± 0.067; V31D: -0.491 ± 0.055.
To V31T belongs 0.006 ± 0.044; to K13F, -0.152 ± 0.057.
Turning to H74W, the abundance fitness was -0.611 ± 0.071.
To C58R belongs 0.023 ± 0.027; to C58M, -0.009 ± 0.042.
In the case of C58Y, the abundance fitness was determined as 0.008 ± 0.048.
Next, C58W: -0.101 ± 0.036; G55Q: -0.08 ± 0.055.
Next, C45L: -0.087 ± 0.027; A49Q: -0.011 ± 0.037.
Turning to A49L, the abundance fitness is -0.132 ± 0.025.
Next, A49E: 0.02 ± 0.03; P64G: 0.032 ± 0.041.
To T3G belongs -0.042 ± 0.041; to T3P, -0.177 ± 0.045.
Next, P12C: -0.305 ± 0.069; G38P: -0.172 ± 0.044; Q7M: 0.04 ± 0.057.
Take Q7R: the abundance fitness is -0.034 ± 0.031.
Next, D57S: -0.027 ± 0.03.
Next, D57E: 0.001 ± 0.045; D57W: -0.464 ± 0.06.
Regarding L62S, the abundance fitness was -0.401 ± 0.048.
Consider F41P, for which the abundance fitness was found to be 0.059 ± 0.045.
Take F41I: the abundance fitness was determined as 0.022 ± 0.055.
To F41K belongs -0.072 ± 0.062; to F41C, -0.034 ± 0.044; to F41Q, -0.134 ± 0.066.
As for F66M, the abundance fitness is -0.032 ± 0.048.
Next, F66L: -0.022 ± 0.043; V67I: -0.159 ± 0.1.
Next, V67K: -0.305 ± 0.23.
To G68L belongs -0.549 ± 0.045.
Consider G68D, for which the abundance fitness was -0.792 ± 0.12.
Consider G68C, for which the abundance fitness is -0.156 ± 0.094.
To G68K belongs -0.678 ± 0.099.
Next, Q17P: -0.983 ± 0.14; Q17G: -0.159 ± 0.033.
For Q17F, the abundance fitness is -0.1 ± 0.076.
Next, M28Q: 0.014 ± 0.049; T21H: -0.067 ± 0.074.
Turning to T21D, the abundance fitness was determined as 0.081 ± 0.065.
To T21G belongs -0.008 ± 0.029.
Next, V23N: -0.858 ± 0.24.
Consider V23D, for which the abundance fitness is -0.906 ± 0.13.
As for D25H, the abundance fitness is 0.041 ± 0.052.
To E61F belongs -0.772 ± 0.17.
To E61I belongs -0.685 ± 0.11; to E61Y, -0.908 ± 0.26.
Next, F34L: -0.276 ± 0.028; F34N: -0.244 ± 0.069.
For F34M, the abundance fitness was -0.362 ± 0.053.
Next, F2D: -0.143 ± 0.09; F2N: -0.141 ± 0.12.
To F2S belongs -0.365 ± 0.048.
To C52F belongs -0.325 ± 0.056.
C52Y: the abundance fitness is -0.472 ± 0.065.
Next, C52H: -0.534 ± 0.079.
To W18H belongs -1.05 ± 0.27.
To W18N belongs -0.965 ± 0.21; to W18M, -1.08 ± 0.27.
For D40L, the abundance fitness was -0.482 ± 0.056.
For D40I, the abundance fitness is -0.32 ± 0.12.
As to D40G, the abundance fitness was -0.546 ± 0.041.
To D40Y belongs -0.651 ± 0.11; to K37F, -0.199 ± 0.06; to K37W, -0.213 ± 0.037.
Next, K37G: -0.054 ± 0.03.
Next, L60F: -0.087 ± 0.066; A53M: -0.09 ± 0.052.
Take A53W: the abundance fitness is -0.583 ± 0.045.
Next, A53L: -0.227 ± 0.032.
Next, A53G: -0.028 ± 0.023; S35A: -0.069 ± 0.03; S35Y: -0.288 ± 0.063.
Next, A63G: -0.262 ± 0.034.
As to R24Y, the abundance fitness was -0.152 ± 0.088.
To R24S belongs -0.152 ± 0.035.
To L75T belongs -1.02 ± 0.17; to L54C, -0.666 ± 0.079; to L54W, -0.582 ± 0.051.
Next, P15W: -0.685 ± 0.085; P15I: -0.064 ± 0.075; P15H: -0.791 ± 0.36.
Turning to R8W, the abundance fitness was -0.169 ± 0.043.
To W26R belongs -0.934 ± 0.04.
W26M: the abundance fitness is -0.898 ± 0.062.
For W29G, the abundance fitness was -0.492 ± 0.038.
For K4F, the abundance fitness is 0.038 ± 0.12.
To K4T belongs -0.071 ± 0.066.
To M46R belongs -0.507 ± 0.043; to M46H, -0.441 ± 0.12.
To L71G belongs -0.932 ± 0.072; to L71R, -0.979 ± 0.08.
Regarding N32R, the abundance fitness is 0.019 ± 0.027.
Next, N32H: 0.032 ± 0.072; N32Q: 0.003 ± 0.041; K43N: -0.049 ± 0.077.
To K43S belongs -0.185 ± 0.043; to K43R, -0.007 ± 0.036.
Next, Q42K: -0.075 ± 0.076; Q42V: -0.358 ± 0.044; Q42T: -0.052 ± 0.061.
For the variant Q42N, the abundance fitness was -0.047 ± 0.081.
Next, Q42D: -0.029 ± 0.058.
To I77T belongs 0.01 ± 0.068.
To I77C belongs -0.021 ± 0.053.
On to I77L, for which the abundance fitness is 0.053 ± 0.041.
Next, D69H: -0.153 ± 0.083.
Next, D69K: -0.057 ± 0.067; D69Q: -0.03 ± 0.066.
In the case of G48W, the abundance fitness is -0.797 ± 0.11.
To G1M belongs -0.186 ± 0.16; to L51K, -1.08 ± 0.15.
To L36W belongs -0.29 ± 0.049; to L36M, -0.343 ± 0.089.
Next, H22S: -0.472 ± 0.044; H22K: -1.07 ± 0.27.
Regarding H22L, the abundance fitness is -0.687 ± 0.061.
As to K56Y, the abundance fitness was -0.134 ± 0.065.
Next, K56T: -0.878 ± 0.098.
For the variant K56V, the abundance fitness is -0.558 ± 0.046.
In the case of D14M, the abundance fitness is -0.52 ± 0.055.
To A30D belongs -0.671 ± 0.086; to A30S, -0.062 ± 0.029.
As for A30H, the abundance fitness is -0.107 ± 0.098.
To A50R belongs -0.063 ± 0.034.
To A50D belongs 0.026 ± 0.05.
Next, A50P: -0.811 ± 0.072.
As for E5I, the abundance fitness is -0.105 ± 0.098.
For the variant E5S, the abundance fitness was -0.245 ± 0.046.
Consider V27C, for which the abundance fitness is -0.18 ± 0.044.
To V27F belongs -0.214 ± 0.046; to D65A, 0.004 ± 0.039.
Next, D65T: 0.027 ± 0.09; D65G: 0.024 ± 0.027; Q6F: -0.075 ± 0.088.
To Q6K belongs -0.143 ± 0.08; to Q6V, -0.096 ± 0.027; to Q6T, -0.102 ± 0.062.
For the variant L9R, the abundance fitness is -0.017 ± 0.039.
For L9Q, the abundance fitness is -0.165 ± 0.064.
For the variant L9H, the abundance fitness was -0.216 ± 0.092.
Regarding L9E, the abundance fitness is -0.261 ± 0.055.
Next, G10E: -0.067 ± 0.045; G10P: -0.263 ± 0.035.
Next, G10A: -0.057 ± 0.04; G10H: -0.072 ± 0.09.
Next, G10V: -0.2 ± 0.032; G10K: -0.028 ± 0.075.
